Values belong to the molecule of their own block, whether it stands above or below them.
How the values were obtained:
FLAG-tagged SOCS3 = target: T1, FLAG-tagged SOCS3 (Rattus norvegicus, UniProt O88583); test: Phosphopeptide affinity chromatography with anti-FLAG Western blot: SOCS3 binding to biotinylated leptin receptor peptides; conditions: lysates of about 3×10^7 HEK293T cells transfected with pMET7-fSOCS3; 5 nmoles biotinylated peptide on streptavidin-agarose; two hours at 4° C.
T1 construct: expressed in transfected cells; host or cells: HEK293T cells (transient transfection; cleared lysate used)
T1 sequence (O88583 1-225): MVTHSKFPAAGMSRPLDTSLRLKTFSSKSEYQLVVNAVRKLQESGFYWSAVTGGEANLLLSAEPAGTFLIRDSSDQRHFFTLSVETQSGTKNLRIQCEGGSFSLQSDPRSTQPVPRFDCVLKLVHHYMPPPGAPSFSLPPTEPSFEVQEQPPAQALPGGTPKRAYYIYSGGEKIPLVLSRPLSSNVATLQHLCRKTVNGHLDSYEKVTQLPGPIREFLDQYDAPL
Description: Monoclonal anti-FLAG antibody M2 was obtained from Sigma. Mouse recombinant leptin was purchased from R&D Systems. Peptides were synthesized using standard Fmoc-amino-acid solid phase chemistry on an Applied Biosystems Model 431A peptide synthesizer. Biotin was manually esterified following similar procedures as on the synthesizer and added to the reaction mixture. Incorporation of phosphotyrosine was realized by using a protected Fmoc-tyrosine-phosphobenzylester (Novabiochem). After purification, the mass of the peptides was confirmed by mass spectrometry. Sequences of the peptides were biotin-QRQPSVK(p)Y985ATLVSNDK (SEQ ID NO:7) and biotin-NHREKSVC(p)Y1077 LGVTSVNR (SEQ ID NO:8).
Approximately 10^6 HEK293T cells were lysed in 150 μl 2× loading buffer. After sonication, 30 μl was loaded on a 10% polyacrylamide gel. […] Blotting efficiency was checked using PonceauS staining (Sigma).
For phosphopeptide affinity chromatography, approximately 3×10^7 HEK293T cells transiently transfected as indicated were lysed in lysis buffer (20 mM Hepes pH 7; 1 mM MgCl2; 10 mM KCl; 0.5 mM DTT; 150 mM NaCl; 0.5% NP40; 1 mM NaVO4; 5 mM NaF; 20% glycerol; Complete™ Protease Inhibitor Cocktail (Roche)). Precipitated material was cleared by 5 minutes centrifugation at 10,000 g. To eliminate a-specific interactions, supernatants were brought on a pre-column containing Sepharose 4B beads prior to phosphopeptide affinity chromatography on streptavidin-coupled agarose beads (Sigma). Peptide concentrations were determined by a colorimetric assay using alkaline hydrolysis and a ninhydrine reagent. Fifty μl of streptavidin-agarose slurry was incubated with 5 nmoles of peptide for each reaction. Cleared lysate was incubated for two hours at 4° C. under slow stirring. […]
The interaction sites of SOCS3 with the leptin receptor were confirmed using a biochemical approach. FLAG-tagged SOCS3 was expressed upon transient transfection of pMET7-fSOCS3 in HEK293T cells and was analyzed for binding to (phospho)-tyrosine-containing peptides matching the two motifs within the leptin receptor. […]

[1] = target: murine leptin receptor, long isoform, Y1077F (mouse), P48356; test: cell-based or functional assay
Chain of murine leptin receptor, long isoform, Y1077F (mouse), P48356 (P48356 22-1162 Y1077F): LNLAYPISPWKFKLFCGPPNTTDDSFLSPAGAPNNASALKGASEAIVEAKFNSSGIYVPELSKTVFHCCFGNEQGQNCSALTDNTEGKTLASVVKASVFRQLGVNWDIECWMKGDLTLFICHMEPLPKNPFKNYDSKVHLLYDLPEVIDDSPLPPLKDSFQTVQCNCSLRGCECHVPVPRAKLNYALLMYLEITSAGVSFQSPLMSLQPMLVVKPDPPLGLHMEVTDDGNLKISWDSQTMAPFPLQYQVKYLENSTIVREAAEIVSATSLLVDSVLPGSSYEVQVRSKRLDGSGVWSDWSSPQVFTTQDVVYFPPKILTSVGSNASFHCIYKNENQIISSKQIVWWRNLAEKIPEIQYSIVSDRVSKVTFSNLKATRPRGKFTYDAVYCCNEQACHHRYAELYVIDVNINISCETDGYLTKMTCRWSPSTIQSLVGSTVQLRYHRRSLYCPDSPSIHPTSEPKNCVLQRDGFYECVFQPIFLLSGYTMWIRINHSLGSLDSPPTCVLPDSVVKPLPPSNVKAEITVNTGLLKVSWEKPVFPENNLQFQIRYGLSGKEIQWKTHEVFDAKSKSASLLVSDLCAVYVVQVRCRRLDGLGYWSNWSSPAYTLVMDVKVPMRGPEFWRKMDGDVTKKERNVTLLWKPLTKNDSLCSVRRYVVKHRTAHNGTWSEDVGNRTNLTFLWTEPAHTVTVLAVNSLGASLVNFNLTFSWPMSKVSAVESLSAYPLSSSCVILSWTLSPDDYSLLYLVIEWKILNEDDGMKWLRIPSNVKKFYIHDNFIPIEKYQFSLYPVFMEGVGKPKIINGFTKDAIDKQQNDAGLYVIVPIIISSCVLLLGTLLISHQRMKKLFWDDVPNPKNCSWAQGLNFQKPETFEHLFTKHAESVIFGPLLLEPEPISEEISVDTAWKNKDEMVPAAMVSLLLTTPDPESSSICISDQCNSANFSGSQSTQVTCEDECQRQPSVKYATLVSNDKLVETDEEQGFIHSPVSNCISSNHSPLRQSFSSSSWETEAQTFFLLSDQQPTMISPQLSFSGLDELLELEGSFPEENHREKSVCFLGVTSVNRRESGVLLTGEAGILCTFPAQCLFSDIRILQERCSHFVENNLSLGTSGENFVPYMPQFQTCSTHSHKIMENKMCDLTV

[2] = target: murine leptin receptor, long isoform, Y985F (mouse), P48356; test: cell-based or functional assay
Chain of murine leptin receptor, long isoform, Y985F (mouse), P48356 (P48356 22-1162 Y985F): as the sequence (P48356 22-1162 Y1077F) above, with Y964F, F1056Y counted along it

[3] = target: murine leptin receptor, long isoform, wild type (mouse), P48356; test: cell-based or functional assay
Chain of murine leptin receptor, long isoform, wild type (mouse), P48356 (P48356 22-1162): as the sequence (P48356 22-1162 Y1077F) above, with F1056Y counted along it

leptin receptor [4] = test: rPAP1-luciferase reporter assay of leptin signalling in HEK293T cells co-transfected with leptin receptor variants and SOCS3; format: cell-based, murine; conditions: 24 hours leptin
Protocol: HEK293T cells were maintained in a 10% CO2 humidified atmosphere at 37° C. and grown using DMEM with 4500 mg/l glucose, 10% fetal bovine serum and 50 μg/ml gentamycin (all from LifeTechnologies). Typically, 4×10^5 cells were seeded the day before transfection in a 6-well plate and transfected overnight with approximately 2 μg plasmid DNA using a standard calcium phosphate precipitation procedure. One day after transfection, cells were re-suspended with Cell Dissociation Agent (LifeTechnologies), seeded in a black well plate (Costar) and stimulated overnight with […] leptin or left unstimulated.
(§1) Luciferase assays, binding assays using Leptin-SEAP and Northern blot hybridizations with SOCS3 and actin probes were described previously by Eyckerman et al. (1999). β-galactosidase activity was measured using the Galacto-Star™ chemiluminescent detection kit (Tropix) and a Topcount Chemiluminescence Counter (Packard).
Based on its functional similarity with the gp130 chain, the leptin receptor was tested for interaction with SOCS3. Leptin receptor variants containing Y to F mutations at positions Y985, Y1077, or at both sites, were tested in a functional assay based on rPAP1-induction. Signalling via the leptin receptor variants was analyzed upon transient transfection in HEK293T cells with the pXP2d2-rPAP11uci and the FLAG-tagged pMET7-fSOCS3 expression construct. Luciferase activity data were normalized by co-transfection with pUT651 and a β-galactosidase activity assay.
Expression of leptin receptor variants and SOCS3 were confirmed, respectively, by a binding assay using a leptin-SEAP fusion protein and Western blot analysis using an anti-FLAG antibody (FIG. 3). LR expression levels were measured on transfected cells by incubation for 90 minutes with Leptin-SEAP fusion protein with or without excess leptin (100×). The transfected cells were stimulated for 24 hours with leptin or left untreated. Luciferase measurements were performed in triplicate and were normalized by co-transfection with the pUT651 β-galactosidase construct and a β-galactosidase activity assay. The results indicated a strong inhibitory activity of SOCS3 (80-90% inhibition) when the wild-type or the mutant Y1077F leptin receptor was expressed, and a moderate inhibition (30-50% inhibition) upon expression of a Y985F receptor variant.

leptin receptor [5] = test: Leptin-induced pGL3-rPAP1-luci reporter induction in PC12 LR8 cells transiently expressing SOCS3; format: cell-based, mouse; conditions: leptin 24 hours
Protocol: FIG. 1: Expression of SOCS3 leads to inhibition of leptin-induced rPAP1 expression in PC12 cells. PC12 LR8 cells were co-transfected with a plasmid encoding SOCS3 (pMET7fSOCS3) or empty vector (mock, pMET7), and a pGL3-rPAP11 reporter construct. Forty-eight hours after transfection, the cells were stimulated with leptin or left untreated. Luciferase activity was measured in triplicate after 24 hours. CPS: absolute luminescence counts per second; NS: nonstimulated negative control.
Culture conditions and transient transfection procedures for PC12 and generation of the PC12LR8 cell line were as previously described. (Eyckerman et al., 1999; Waelput et al., 2000.)
as §1
Through representational difference analysis, a PCR-based differential expression screening in PC12 cells expressing the mouse leptin receptor, several leptin-induced transcripts (including SOCS3) were identified. In order to check the inhibitory role of SOCS3 on leptin signaling in the cell systems used, an expression vector containing rat SOCS3 was generated. […]

Molecule: biotin-NHREKSVC(p)Y1077 LGVTSVNR (SEQ ID NO:8) [phosphorylated Y1077 peptide]
- binding of SOCS3 to peptide (Western blot, anti-FLAG antibody) (FLAG-tagged SOCS3): binds specifically to the phosphorylated Y1077 peptide, but apparently with a much lower affinity

Molecule: biotin-QRQPSVK(p)Y985ATLVSNDK (SEQ ID NO:7) [non-phosphorylated peptide]
- binding of SOCS3 to peptide (Western blot, anti-FLAG antibody) (FLAG-tagged SOCS3): did not bind any SOCS3 protein

Molecule: biotin-QRQPSVK(p)Y985ATLVSNDK (SEQ ID NO:7) [phosphorylated Y985 peptide]
- binding of SOCS3 to peptide (Western blot, anti-FLAG antibody) (FLAG-tagged SOCS3): clear and specific binding

- inhibition of leptin-induced rPAP1 luciferase reporter [1]: 80 to 90 % inhibition
- inhibition of leptin-induced rPAP1 luciferase reporter [2]: 30 to 50 % inhibition
- inhibition of leptin-induced rPAP1 luciferase reporter [3]: 80 to 90 % inhibition
B1: FLAG-tagged rat SOCS3 (expressed from pMET7fSOCS3), O88583 1-225 (protein)
chain: MDYKDDDDKMVTHSKFPAAGMSRPLDTSLRLKTFSSKSEYQLVVNAVRKLQESGFYWSAVTGGEANLLLSAEPAGTFLIRDSSDQRHFFTLSVETQSGTKNLRIQCEGGSFSLQSDPRSTQPVPRFDCVLKLVHHYMPPPGAPSFSLPPTEPSFEVQEQPPAQALPGGTPKRAYYIYSGGEKIPLVLSRPLSSNVATLQHLCRKTVNGHLDSYEKVTQLPGPIREFLDQYDAPL
- inhibition of leptin signalling (rPAP1 luciferase) (leptin receptor [4]; Y985F receptor variant): 30-50 % inhibition
- inhibition of leptin signalling (rPAP1 luciferase) (leptin receptor [4]; double Y985/1077F mutant): no inhibition was observed
- inhibition of leptin signalling (rPAP1 luciferase) (leptin receptor [4]; mutant Y1077F leptin receptor): 80-90 % inhibition
- inhibition of leptin signalling (rPAP1 luciferase) (leptin receptor [4]; wild-type leptin receptor): 80-90 % inhibition
- inhibition of leptin-mediated reporter induction (leptin receptor [5]): marked inhibition
